Test results from paper PMC3320612, “Structural Basis of Cytotoxicity Mediated by the Type III Secretion Toxin ExoU from Pseudomonas aeruginosa” (PLoS Pathogens, 2012).
Values joined by “and” are separate entries in the source; they are usually repeats but may differ in a detail not shown here. Equal entries are not always repeated.

B1: SpcU(1–127) (domain or fragment)
chain: MIDTWLAQWGLRLPSSNDATLRLQPAEGPELVMERLEGGWLFVVELGLVPSGLPLGVILQLLQVNSPFSSLAPVKLAADDAGRLVLWAEARDGVDDVDALNRLHDRLREGHSRLVPLLEPTGELVPA
modifications: selenomethionine in the crystals (SAD on the selenium edge)
notes: SpcU, type IA T3SS chaperone of ExoU, Pseudomonas aeruginosa; full length is 1-137; stop codon introduced after residue 127; amplified from a clinical strain (GESPA 1999 collection); also called chaperone SpcU

How the values were obtained:
[1] = target: ExoU(30–687) (Pseudomonas aeruginosa (clinical strain, GESPA 1999 collection)) (UniProt O34208); assay: native MS; purified ExoU∶SpcU complex, 15 µM in 20 mM ammonium acetate, electrospray, positive mode, Micro-TOF-Q
[2] = target: the molecule itself; assay: crystal structure; co-expressed, co-purified ExoU(30–687)∶SpcU(1–127) complex; crystals in 0.1 M KNO3, 20% PEG 3350; SAD on the selenium edge, C2 cell, 2.94 Å

| Molecule | stoichiometry N (SpcU per ExoU (printed as ExoU∶SpcU)) [1] | binding result [2] |
| --- | --- | --- |
| SpcU(1–127) (from UniProt O66100 1-127) (domain or fragment) | 1 and 2 |  |
| B1 |  | binds |
